These results are taken from patent publication US20180140716A1.

One assay addresses CD33 on HL-60 cells (UniProt P20138). Nature of the assay: cell-based or functional assay.
Assay [1] addresses 5T4 antigen on cells (human (human cancer cell lines)) (UniProt Q13641). Nature of the assay: flow cytometry (MFI) on 5T4 expressing cells, anti-Fc FITC detection. On the technique in general: Flow cytometry measures light scatter and fluorescence of single cells or particles in a stream.
Sequence of UniProt Q13641 (Q13641 32-420): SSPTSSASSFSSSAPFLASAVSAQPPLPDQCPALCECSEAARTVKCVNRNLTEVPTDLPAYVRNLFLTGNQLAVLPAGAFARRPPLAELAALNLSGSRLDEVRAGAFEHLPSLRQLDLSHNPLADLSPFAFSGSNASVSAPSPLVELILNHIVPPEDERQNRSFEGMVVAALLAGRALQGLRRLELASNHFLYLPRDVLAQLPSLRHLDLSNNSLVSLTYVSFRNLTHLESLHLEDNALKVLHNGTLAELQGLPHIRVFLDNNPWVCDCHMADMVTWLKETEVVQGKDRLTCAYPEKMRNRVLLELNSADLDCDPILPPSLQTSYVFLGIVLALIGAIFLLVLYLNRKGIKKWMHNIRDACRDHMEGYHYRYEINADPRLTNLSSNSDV

Sequence of UniProt P20138 (P20138 18-364 limits assumed): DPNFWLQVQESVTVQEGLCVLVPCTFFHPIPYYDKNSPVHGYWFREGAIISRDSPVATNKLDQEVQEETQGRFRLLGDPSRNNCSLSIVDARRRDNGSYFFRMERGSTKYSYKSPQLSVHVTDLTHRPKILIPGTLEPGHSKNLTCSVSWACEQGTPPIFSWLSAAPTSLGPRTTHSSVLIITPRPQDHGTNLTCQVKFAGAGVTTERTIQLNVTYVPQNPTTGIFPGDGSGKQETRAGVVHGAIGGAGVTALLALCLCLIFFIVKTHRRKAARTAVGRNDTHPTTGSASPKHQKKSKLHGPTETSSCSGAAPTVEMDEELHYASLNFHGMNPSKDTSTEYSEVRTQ

“Lintuzumab-((EG2-MI (2%)-(10 kDa PHF-BA (30%)-(AF-HPA-Ala (9%)), AF-HPA:lintuzumab about 10:1 to about 15:1 (antibody)” came in with an IC50, antiproliferation (Cell Titer-Glo), HL-60 cells with CD33 on HL-60 cells of 0.77 nM. Regarding non-binding scFvFc fusion protein, the fold less binding than the anti-5T4 scFvFc proteins in assay [1] turned out to be 200 fold less.
